Reference: publication PMC7948471, “RSU-1 interaction with prohibitin-2 links cell–extracellular matrix detachment to downregulation of ERK signaling” (The Journal of Biological Chemistry, 2020)
Each block holds one binder with its values, some of them ahead of it.

Target: T1, GST-tagged RSU1 (full length) (human, UniProt Q15404 1-277)
T1 construct: Ras suppressor 1 (RSU1), human; the ORF inserted into pGEX-5x-1; In solution in the MBP-PHB2 pull-down; as bait in the pull-down of venus-PHB2; also called GST-RSU1; source: E. coli, purified (glutathione-Sepharose 4B)
T1 sequence (looked up): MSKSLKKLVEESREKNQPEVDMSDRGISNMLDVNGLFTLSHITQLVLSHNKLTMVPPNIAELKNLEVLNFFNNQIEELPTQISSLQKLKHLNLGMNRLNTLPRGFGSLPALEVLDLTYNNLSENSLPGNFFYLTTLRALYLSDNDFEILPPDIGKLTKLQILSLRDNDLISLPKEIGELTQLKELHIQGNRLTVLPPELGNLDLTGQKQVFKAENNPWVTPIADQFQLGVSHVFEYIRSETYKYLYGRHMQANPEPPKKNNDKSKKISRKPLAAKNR
Test: pull-down; GST-RSU1 (10 μg/ml) with amylose beads holding MBP-tagged full-length or deletion forms of PHB2 or MBP; 1% Triton X-100, 10 mM Tris, 100 mM NaH2PO4, pH 8.0; 4 °C, 3 h; Western blot with anti-RSU1
Details: both partners purified

binding result: binds
B1: MBP-tagged PHB2 middle region (amino acids 150–206) (domain or fragment, human, UniProt Q99623 150-206, looked up)
chain: ASQLITQRAQVSLLIRRELTERAKDFSLILDDVAITELSFSREYTAAVEAKQVAQQE
notes: source: E. coli, purified (amylose-agarose beads)

binding result: binds
B2: MBP-tagged PHB2 mutant in which amino acids 150 to 206 are deleted (Δ150–206) (natural protein, human, UniProt Q99623 1-299, looked up)
chain: MAQNLKDLAGRLPAGPRGMGTALKLLLGAGAVAYGVRESVFTVEGGHRAIFFNRIGGVQQDTILAEGLHFRIPWFQYPIIYDIRARPRKISSPTGSKDLQMVNISLRVLSRPNAQELPSMYQRLGLDYEERVLPSIVNEVLKSVVAKFNAQRAQFLVEKAKQEQRQKIVQAEGEAEAAKMLGEALSKNPGYIKLRKIRAAQNISKTIATSQNRIYLTADNLVLNLQDESFTRGSDSLIKGKK
notes: as for B1
